# Patent US20110158992A1 (SCHERING, published 2011)
# Residue numbers refer to the chain shown, from its start. Numbers in names are those of the source.
# T1: biotinylated huIL-23R-IgG (human, UniProt Q5VWK5 24-353, biotinylated)
# T1 construct: not shown: human IgG1 Fc
# T1 sequence: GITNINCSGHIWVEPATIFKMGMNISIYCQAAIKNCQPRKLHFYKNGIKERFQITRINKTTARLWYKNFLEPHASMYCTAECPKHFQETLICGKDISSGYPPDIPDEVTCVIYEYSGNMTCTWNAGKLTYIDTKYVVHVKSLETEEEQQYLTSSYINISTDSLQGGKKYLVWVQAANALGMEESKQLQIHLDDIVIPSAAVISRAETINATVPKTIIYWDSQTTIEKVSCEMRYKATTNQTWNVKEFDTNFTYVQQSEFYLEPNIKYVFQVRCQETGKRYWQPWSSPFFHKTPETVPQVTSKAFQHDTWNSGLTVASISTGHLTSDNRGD
# B1: chimeric 8B10 Fab, VH H102A (Fab, V domains shown)
# VH: EVKLVESGGGLEQPKGSLKLSCTVSGFDFNSYGMSWVRQAPGKGLDLVADINSKSYNYATYYADSVKDRFTISRDDSQSMVYLEMDNLKTEDTALYYCTVHASDYFEYWGQGVMVTVSS
# VL: DIQMTQSPASLSASLGETVSIECLASEDIYNNLAWYQQKPGKSPQLLIYHASSLQDGVPSRFSGSGSGTQYSLKINSLESEDAATYFCLQDSEYPPTFGGGTKLELKR
# notes: Rat V domains with human CH1 and CL; E. coli periplasmic extract
# B2: chimeric 8B10 Fab, VL H50A (Fab, V domains shown)
# VH: B1 VH with A102H
# VL: B1 VL with H50A
# notes: as for B1
# B3: chimeric 8B10 Fab, VL S53A (Fab, V domains shown)
# VH: B1 VH with A102H
# VL: B1 VL with S53A
# notes: Rat V domains with human CH1 and CL; E. coli periplasmic extract; also called S53A (light chain variable domain)
# B4: chimeric 8B10 Fab, VH Y32A (Fab, V domains shown)
# VH: B1 VH with Y32A, A102H
# VL: B1 VL
# notes: as for B1
# B5: chimeric 8B10 Fab, VH D50A (Fab, V domains shown)
# VH: B1 VH with D50A, A102H
# VL: B1 VL
# notes: as for B1
# B6: chimeric 8B10 Fab, VL Y49A (Fab, V domains shown)
# VH: B1 VH with A102H
# VL: B1 VL with Y49A
# notes: as for B1
# B7: chimeric 8B10 Fab, VH E107A (Fab, V domains shown)
# VH: B1 VH with A102H, E107A
# VL: B1 VL
# notes: as for B1
# B8: chimeric 8B10 Fab, VH Y61A (Fab, V domains shown)
# VH: B1 VH with Y61A, A102H
# VL: B1 VL
# notes: as for B1
# B9: chimeric 8B10 Fab, VL D91A (Fab, V domains shown)
# VH: B1 VH with A102H
# VL: B1 VL with D91A
# notes: as for B1
# B10: chimeric 8B10 Fab, VH S103A (Fab, V domains shown)
# VH: B1 VH with A102H, S103A
# VL: B1 VL
# notes: as for B1
# B11: chimeric 8B10 Fab, VH A49G (Fab, V domains shown)
# VH: B1 VH with A49G, A102H
# VL: B1 VL
# notes: as for B1
# B12: chimeric 8B10 Fab, VH G33A (Fab, V domains shown)
# VH: B1 VH with G33A, A102H
# VL: B1 VL
# notes: as for B1
# B13: chimeric 8B10 Fab, VL S92A (Fab, V domains shown)
# VH: B1 VH with A102H
# VL: B1 VL with S92A
# notes: as for B1
# B14: chimeric 8B10 Fab, VL N32A (Fab, V domains shown)
# VH: B1 VH with A102H
# VL: B1 VL with N32A
# notes: as for B1
# B15: chimeric 8B10 Fab, VL N31A (Fab, V domains shown)
# VH: B1 VH with A102H
# VL: B1 VL with N31A
# notes: as for B1
# B16: chimeric 8B10 Fab, VH K54A (Fab, V domains shown)
# VH: B1 VH with K54A, A102H
# VL: B1 VL
# notes: as for B1
# B17: chimeric 8B10 Fab, VH Y58G (Fab, V domains shown)
# VH: B1 VH with Y58G, A102H
# VL: B1 VL
# notes: as for B1
# B18: chimeric 8B10 Fab, VL N31T (Fab, V domains shown)
# VH: B1 VH with A102H
# VL: B1 VL with N31T
# notes: as for B1
# B19: chimeric 8B10 Fab, VH S53A (Fab, V domains shown)
# VH: B1 VH with S53A, A102H
# VL: B1 VL
# notes: Rat V domains with human CH1 and CL; E. coli periplasmic extract; also called S53A (heavy chain variable domain)
# B20: chimeric 8B10 Fab, VH S55A (Fab, V domains shown)
# VH: B1 VH with S55A, A102H
# VL: B1 VL
# notes: as for B1
# B21: chimeric 8B10 Fab, VL D28A (Fab, V domains shown)
# VH: B1 VH with A102H
# VL: B1 VL with D28A
# notes: as for B1
# B22: chimeric 8B10 Fab, VH F106A (Fab, V domains shown)
# VH: B1 VH with A102H, F106A
# VL: B1 VL
# notes: as for B1
# B23: chimeric 8B10 Fab, VH R74A (Fab, V domains shown)
# VH: B1 VH with R74A, A102H
# VL: B1 VL
# notes: as for B1
# B24: chimeric 8B10 Fab, VH I51A (Fab, V domains shown)
# VH: B1 VH with I51A, A102H
# VL: B1 VL
# notes: as for B1
# B25: chimeric 8B10 Fab, VL Y30A (Fab, V domains shown)
# VH: B1 VH with A102H
# VL: B1 VL with Y30A
# notes: as for B1
# B26: chimeric 8B10 Fab, VH N52A (Fab, V domains shown)
# VH: B1 VH with N52A, A102H
# VL: B1 VL
# notes: as for B1
# B27: chimeric 8B10 Fab, VL E27A (Fab, V domains shown)
# VH: B1 VH with A102H
# VL: B1 VL with E27A
# notes: as for B1
# B28: chimeric 8B10 Fab, VH D104A (Fab, V domains shown)
# VH: B1 VH with A102H, D104A
# VL: B1 VL
# notes: as for B1
# B29: chimeric 8B10 Fab, VH H101A (Fab, V domains shown)
# VH: B1 VH with H101A, A102H
# VL: B1 VL
# notes: as for B1
# B30: chimeric 8B10 Fab, VH S31A (Fab, V domains shown)
# VH: B1 VH with S31A, A102H
# VL: B1 VL
# notes: as for B1
# B31: chimeric 8B10 Fab, VL E93A (Fab, V domains shown)
# VH: B1 VH with A102H
# VL: B1 VL with E93A
# notes: as for B1
# B32: chimeric 8B10 Fab, VH Y105A (Fab, V domains shown)
# VH: B1 VH with A102H, Y105A
# VL: B1 VL
# notes: as for B1
# Target: T1, biotinylated huIL-23R-IgG
# Assay: ECL binding assay, periplasmic Fab extracts, biotinylated huIL-23R-IgG; AUC vs parental 8B10 Fab
# Excerpt: The N31T change was introduced as a result of affinity maturation experiments, as follows. An E. coli expression vector for expression into the periplasmic space was constructed encoding a chimeric Fab fragment of rat antibody 8B10 comprising rat variable domains, a human constant light chain domain (CL) and a human constant heavy chain domain CH1. Mutations were introduced using a QuikChange® site directed mutagenesis kit (Stratagene Inc., LaJolla, Calif., USA). Primers were designed to replace selected positions with either alanine, or by all 20 amino acids, using the NNK codon approach (N includes an equimolar mix of A/G/C/T and K includes only G/T). To reduce background, alanine mutants at each position were used as the template for the randomization step. Unpurified periplasmic extracts were then tested for human IL-23R binding activity using an electrochemiluminescence assay with biotinylated huIL-23R-IgG and goat anti-huFab-Ori-Tag for detection. The area under the curve was used to compare the binding activity of sequence variants to the original parental 8B10 Fab. Data were fitted using GraphPad Prism® 3.0 software (Graphpad Software inc., San Diego, Calif. USA).
row,Binder,Binding (% of w.t.)
1,B1,84.2 % of w.t.
2,B2,62.2 % of w.t.
3,B3,85 % of w.t.
4,B4,76.3 % of w.t.
5,B5,67.3 % of w.t.
6,B6,62.4 % of w.t.
7,B7,61 % of w.t.
8,B8,41.7 % of w.t.
9,B9,5.6 % of w.t.
10,B10,65.7 % of w.t.
11,B11,79 % of w.t.
12,B12,27.4 % of w.t.
13,B13,68.4 % of w.t.
14,B14,13.4 % of w.t.
15,B15,117 % of w.t.
16,B16,71.1 % of w.t.

row,Binder,Binding (% of w.t.)
1,B17,53 % of w.t.
2,B18,129 % of w.t.
3,B19,88.7 % of w.t.
4,B20,105 % of w.t.
5,B21,93.1 % of w.t.
6,B22,71.1 % of w.t.
7,B23,52.6 % of w.t.
8,B24,123 % of w.t.
9,B25,3.2 % of w.t.
10,B26,38.7 % of w.t.
11,B27,96.2 % of w.t.
12,B28,1.5 % of w.t.
13,B29,29.1 % of w.t.
14,B30,100 % of w.t.
15,B31,62.8 % of w.t.
16,B32,18.3 % of w.t.
